In paper PMC5389570:
Read-outs that look alike come from different tables or passages of the source.

Experiments:
[1] = target: T1, RPA heterotrimer (RPA70/RPA32/RPA14) (Homo sapiens, UniProt P27694;P15927;P35244 1-616;1-270;1-121); assay: EMSA
[2] = target: T1, RPA heterotrimer (RPA70/RPA32/RPA14); assay: SPR
[3] = target: T1, RPA heterotrimer (RPA70/RPA32/RPA14); assay: SPR; remark: listed apart in the source
SSB = SSB (Escherichia coli, UniProt P0AGE0 1-178); assay: EMSA
Cdc45 = target: T2, Cdc45 (Homo sapiens, UniProt O75419 1-566); assay: EMSA
T2 sequence: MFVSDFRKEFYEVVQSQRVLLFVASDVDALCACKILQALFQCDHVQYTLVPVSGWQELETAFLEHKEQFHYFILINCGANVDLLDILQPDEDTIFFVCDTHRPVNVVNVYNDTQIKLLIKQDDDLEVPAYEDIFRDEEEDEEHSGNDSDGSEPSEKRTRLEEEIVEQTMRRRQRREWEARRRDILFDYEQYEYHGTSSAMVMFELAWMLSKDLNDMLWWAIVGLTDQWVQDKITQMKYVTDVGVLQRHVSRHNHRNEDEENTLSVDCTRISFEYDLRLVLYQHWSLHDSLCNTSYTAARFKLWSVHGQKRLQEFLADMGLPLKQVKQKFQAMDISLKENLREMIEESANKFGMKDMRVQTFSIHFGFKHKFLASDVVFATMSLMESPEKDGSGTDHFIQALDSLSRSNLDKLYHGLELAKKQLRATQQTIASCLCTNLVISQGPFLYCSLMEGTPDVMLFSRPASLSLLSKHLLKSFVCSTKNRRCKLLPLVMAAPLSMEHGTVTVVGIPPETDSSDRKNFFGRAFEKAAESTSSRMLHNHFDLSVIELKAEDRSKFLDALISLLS

[4] = target: T1, RPA heterotrimer (RPA70/RPA32/RPA14); assay: EMSA; remark: listed apart in the source

T1 sequence (P27694 whole entry, chain 1 of 3): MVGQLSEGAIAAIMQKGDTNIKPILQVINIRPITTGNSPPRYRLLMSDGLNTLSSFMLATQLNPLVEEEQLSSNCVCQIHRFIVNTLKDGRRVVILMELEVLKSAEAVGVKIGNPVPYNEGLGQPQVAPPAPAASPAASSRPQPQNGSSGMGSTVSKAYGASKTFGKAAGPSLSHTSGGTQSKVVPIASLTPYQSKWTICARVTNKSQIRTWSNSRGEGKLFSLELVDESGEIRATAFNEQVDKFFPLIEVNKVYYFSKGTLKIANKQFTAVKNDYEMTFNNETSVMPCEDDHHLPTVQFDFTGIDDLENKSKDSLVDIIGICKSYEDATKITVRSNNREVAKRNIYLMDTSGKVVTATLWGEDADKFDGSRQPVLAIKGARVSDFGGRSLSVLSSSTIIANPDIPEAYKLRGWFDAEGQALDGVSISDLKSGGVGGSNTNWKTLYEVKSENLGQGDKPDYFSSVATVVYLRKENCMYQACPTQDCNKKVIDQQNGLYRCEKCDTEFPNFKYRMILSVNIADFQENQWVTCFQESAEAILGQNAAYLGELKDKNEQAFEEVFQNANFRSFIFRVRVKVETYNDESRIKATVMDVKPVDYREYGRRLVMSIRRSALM
T1 sequence (P15927 whole entry, chain 2 of 3): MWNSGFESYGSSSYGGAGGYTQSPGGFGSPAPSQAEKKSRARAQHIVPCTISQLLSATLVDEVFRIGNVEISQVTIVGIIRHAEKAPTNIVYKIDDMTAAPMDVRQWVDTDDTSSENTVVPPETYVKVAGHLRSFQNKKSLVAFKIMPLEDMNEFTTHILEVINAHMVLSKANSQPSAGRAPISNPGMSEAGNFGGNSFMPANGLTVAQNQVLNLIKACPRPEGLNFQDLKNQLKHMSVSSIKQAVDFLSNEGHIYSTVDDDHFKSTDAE
T1 sequence (P35244 whole entry, chain 3 of 3): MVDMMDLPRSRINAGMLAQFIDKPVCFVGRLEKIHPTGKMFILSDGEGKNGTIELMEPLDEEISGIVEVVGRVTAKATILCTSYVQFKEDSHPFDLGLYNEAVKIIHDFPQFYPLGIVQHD
SSB, sequence (P0AGE0 whole entry): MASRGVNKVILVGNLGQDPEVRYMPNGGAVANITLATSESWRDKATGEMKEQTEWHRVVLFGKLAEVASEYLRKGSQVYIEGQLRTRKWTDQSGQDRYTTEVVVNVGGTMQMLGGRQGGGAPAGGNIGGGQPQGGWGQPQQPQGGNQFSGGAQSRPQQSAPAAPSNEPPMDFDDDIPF

B1: M5 (67-mer; called 65-mer in text) (ssDNA)
DNA: GTACCCGGGGATCCTCTAGAGTCGACCTGCAGGCATGCAAGCTTGGCACTGGCCGTCGTTTTACAAC
B1 was tested, and the binding signal [1] was ~4 fold vs RPA alone.

Work on GGCTGGCATG (ssDNA) [M10-biotin (10-mer)] yielded a Kd [2] of 44.1 ± 4.7 nM and a Kd [3] of 112 ± 14 nM.

In the case of GCTTGCATGCCTGCAGGCCAGCCTCAATCTCATC (ssDNA) [M2 (34-mer)], the binding result (SSB) is reported as “binds”, the binding result (Cdc45) is reported as “no binding” and the binding signal [4] is reported as > 5 fold vs RPA alone.

Work on GCTTGCATGCCTGCAGGCCAGCCTCAATCTCATC (ssDNA) [M2-biotin (34-mer)] yielded a Kd [2] of 1.53 ± 1.3 nM.
